From paper doi:10.1101/2020.12.01.405779

Assays:
FUL3 (wheat) = assay: two-hybrid
FUL2 (wheat) = assay: two-hybrid

- percent reduction of the α-gal activity of the FUL3 - SEP1-2 interaction (FUL3 (wheat)): 93.8%
- percent reduction of the α-gal activity of the FUL2 - SEP1-2 interaction (FUL2 (wheat)): 12%
- percent reduction of the α-gal activity of the FUL2 - SEP1-4 interaction (FUL2 (wheat)): 20.6%
- percent reduction of the α-gal activity of the FUL2 - SEP1-6 interaction (FUL2 (wheat)): 22%
Substance: VRT2 (Bridge protein of the yeast three-hybrid assay) (natural protein)
